The target of this test is T1, µ1 MHD carrying a C-terminal Avitag, WT (UniProt Q9BXS5 158-423).
T1 sequence (looked up): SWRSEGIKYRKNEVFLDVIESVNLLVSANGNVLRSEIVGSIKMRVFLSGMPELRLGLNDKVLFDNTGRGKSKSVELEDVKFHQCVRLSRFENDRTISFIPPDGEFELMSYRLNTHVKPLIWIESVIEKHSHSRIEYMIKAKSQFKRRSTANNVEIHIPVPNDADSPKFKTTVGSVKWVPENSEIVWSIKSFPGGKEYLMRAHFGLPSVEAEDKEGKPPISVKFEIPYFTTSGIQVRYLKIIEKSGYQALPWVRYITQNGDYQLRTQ
As to the kind of experiment: SPR. On the technique in general: SPR reads the build-up and loss of mass on a sensor chip optically.

In paper PMC5584140 (The Journal of Cell Biology, 2017) one finds Kd data, which are given here for one molecule.

B1: TGN38 peptide carrying a canonical YXXΦ signal (peptide)
peptide: CKVTRRPKASDYQRL
As a reminder, the Kd is the concentration at which binding is half-saturated. High values mean weaker binding, low ones tighter binding. B1 registered a Kd of roughly 20 µM.
